Data on 24 sequences can be found in the DeepSol protein solubility set.

The data set in a line: soluble on expression in E. coli; label from the status in PepcDB or PDB records.
With “MSENSIRLTQYSHGAGCGCKISPKVLETILHSEQAKFVDPNLLVGNETRDDAAVYDLGNGTSVISTTDFFMPIVDNPFDFGRIAATNAISDIFAMGGKPIMAIAILGWPINKLSPEIAREVTEGGRYACRQAGIALAGGHSIDAPEPIFGLAVTGIVPTERVKKNSTAQAGCKLFLTKPLGIGVLTTAEKKSLLKPEHQGLATEVMCRMNIAGASFANIEGVKAMTDVTGFGLLGHLSEMCQGAGVQARVDYDAIPKLPGVEEYIKLGAVPGGTERNFASYGHLMGEMPREVRDLLCDPQTSGGLLLAVMPEAENEVKATAAEFGIELTAIGELVPARGGRAMVEIR”, the “soluble on expression in E. coli” value is listed as “not soluble”.
Regarding “EGYEQDFAVLTAEITSKIARVPRLPPDEKKQMVANVEKQLEEARELLEQMDLEVREIPPQSRGMYSNRMRSYKQEMGKLETDFKRSRIA”, the “soluble on expression in E. coli” value was “soluble”.
For “SPCKYSRSEVVLTFFERSPLDQVLKNDNVHKIQPSFQSPVKISEIMRSNGFCLANTETIVIDHSIPNGRDQQLGVDQTEHLFENGSEFPSELEDGDDPAAYVTNLSYYHLVPFETDIWD”, the “soluble on expression in E. coli” value was “soluble”.
The value for “GPLGSQELRLRVQGKEKHQMLEISLSPDSPLKVLMSHYEEAMGLSGHKLSFFFDGTKLSGKELPADLGLESGDLIEVWG” was “soluble”; that for “MAHHHHHHMGTLEAQTQGPGSMFITFEGIDGSGKTTQSHLLAEYLSEIYGVNNVVLTREPGGTLLNESVRNLLFKAQGLDSLSELLFFIAMRREHFVKIIKPSLMQKKIVICDRFIDSTIAYQGYGQGIDCSLIDQLNDLVIDVYPDITFIIDVDINESLSRSCKNGYEFADMEFYYRVRDGFYDIAKKNPHRCHVITDKSETYDIDDINFVHLEVIKVLQMV” was “soluble”; that for “GYMPPIEHLQNPIDKYASQLISADGKVFGSYAHSGDNRIYTRYNEISPDLIKALIATEDVRFRKHSGIDSKGLFRAVVKRGILNQKSGGGGSTITQQLAKLLYSPRTETKLGRLFQKPIEWVIAVKLERFYTKEEIITMYLNYFDFLYNAVGIKSAAYTYFGKQPADLKIEEAAVLVGMCKNPAYYNPVLHGETERCRGRRNIVLEQMYKAKYITKAECDSLQKLPLVTSFHRITHRDGEAPYFRERLRQVLMAKKPERKNYLAWQDDQYRADSIAWETDPVYGWCNKNKKADGSNYNIYTDGLKIYTTIDLRMQQYAEEAMVKQMKEVLQPIFDKEKRGRSYAPFSRDITSDEQRSILLRAMKQTDRWREMKKAGISESEIRASFNKKRKMQVWNWRGTIDTVMSPLDSIKYLKGILRTGFMAMNPHNGHIKAYVGGINFRNFQYDMVSQGRRQVGSTIKPFLYSLSMLEGISPCDEMLHVSQTLFTESGKAWTPKNTGARRTGEMVSIKWGLQNSSNWVTAYLMGRTSPYTFVRLLRS” was “not soluble”.
As for “MGFYQGPDNRKITGGLKGKHRDKRKYEIGNPPTFTTLSAEDIRIKDRTLGGNFKVRLKYTTTANVLDPATNTAKKVKILEILETPANKELARRGIIIRGAKIRTEAGLAVVTSRPGQDGVINAVLLKNESQRSLEHHHHHH”, the “soluble on expression in E. coli” value is “not soluble”.
On to “KFSPEFGIFMNIGASKIFTKTEVDQNEYSYLVDFRTIKGDIFLDFEAIFQLGVKNNINNNIVTGLTSLLEIGYSPYIISTKYEGESDSIYYIFTDRVILYSLVLGALEKIVFNNFSIGIGAGVLFPISGFAASNHPRNIISVMPSENLSIISPYNSKLDYAYIKKLFKVPVAPYIKITAEYAFKPYKIDNAEMDFVLGAYLSYNFGMQYDVSVLNSNIPKQGDNGLIIPGISSKDMFYKYDYSNLDFGVTFGVSFRALE”, for which the “soluble on expression in E. coli” value is on record as “not soluble”.
Take “MAHHHHHHMAALQHVNSATEITPLLACGGDYVKNGTQTLSIPSVYATLDALESLWQAQREKQHLSVRGRAQGLRHYHAVYEASARCVPLSLTRWEQWLAGLSEQGARSTVGACPDELSSSSSPHVQRVQKELVDSYWHLYRRLCWGSSGAAKAGLAAVLEHTDSAASGLPSVMATGAASLLAKQEAALAKPLQAFARLSADRHTCSPITR”: the “soluble on expression in E. coli” value is “not soluble”.
For the sequence “MASSSSGGAGGAGGASGAPEVKIHNVYMSNVEEEFARIRGFVEDYPYVAMDTEFPGVVATPLGTFRSKEDFNYQQVFCNVNMLKLIQVGFAMVNDKGELPPTGDVWQFNFNFSFAEDMFSHESVEMLRQAGIDFTLLQNNGIPTAVFGELLTTSGLITDPRITWLTFSSGYDFGYLLKSITLGDLPKEESTFFMCHKTLFPTSFDIKILLRTPNCASAKLKGGLQEVADQLDVKRQGVRHQAGSDALLTAATFFKIKKQFFGDNWNQIAPLICGHMFGLGSSLSLFHSSGSTSRLGDETPQGLIGVPQQA”, the “soluble on expression in E. coli” value is reported as “not soluble”.
Turning to “MGSDKIHHHHHHMLRFVMNDDQQSCLVSRLSRFVALTEAECAFIAEMEKDEHERRKGRPVVQVGDPTEGIMVLKSGWAVVKADSSDGRSQILRVYLPGEVMGLAEIGSSHANHRIIMQTDGKICPFPRAGLAPLYSDYPRLGALLTAVGSLDQIALRHHASSLGAMDATGRLKFWLLQLRSRLEVANVGLGNRFRVPFSQVEIGQAVGLTSIYVNKLLRRFMDDGDLEIERPYFRLLNREQWERDCEYVNPFVDMDTSWFPPAYPEIHDSAP”, the “soluble on expression in E. coli” value is listed as “not soluble”.
Consider “MLTALKTDTGKIRQHNEDDAGIFKGKDEFILAVVADGMGGHLAGDVASKMAVKAMGEKWNEAETIPTAPSECEKWLIEQILSVNSKIYDHAQAHEECQGMGTTIVCALFTGKTVSVAHIGDSRCYLLQDDDFVQVTEDHSLVNELVRTGEISREDAEHHPRKNVLTKALGTDQLVSIDTRSFDIEPGDKLLLCSDGLTNKVEGTELKDILQSDSAPQEKVNLLVDKANQNGGEDNITAVLLELALQVEEGEDQC”, for which the “soluble on expression in E. coli” value was “soluble”.
For “MGAIKPLEDWLKNLGVKSDIRPNLLAGMEINDQICSVPLQTSNIGILERSKLFQAAGITEPPKTWEELRAVVKKSTIDKNGDHRPEQYGMLLTFGKGGWTVFSWLPFLFAAQGEIITDHYPSLSNPGAITALQFW”, the “soluble on expression in E. coli” value is listed as “not soluble”.
For “KAFLEDMKKYAETFLEPWFKAPNKGTFQIVYKSRNNSHVNREEVIRELAGIVCTLNSENKVDLTNPQYTVVVEIIKAVCCLSVVK”, the “soluble on expression in E. coli” value is reported as “soluble”.
In the case of “MLKYMLDTNIAIYVIKRRPIEVLVTFNRYADMMCVSAVTEAELLHGAEKSRQREHNLRQVADFLSRLEVLSYTSKAAGHYGDIRADLERKEKPIGVNDLHIAAHARSEGFILVSNNLREFERVDGLRLENWIT” it was “not soluble”.
In the case of “MRITHLGHSCILVEAAGQRILVDPGNLSRSWRGLTDLDAILVTHRHPDHVDPEHIGALVDANSGAVVRAEEGACHEIPALDADPVAPGDVLQIGEVRIEAVGGRHAVIHRDLEPIGNVGYLIGEGLGTILYHPGDELDETPRGVDVLACPAHAPWAAMKETVDFARSVGARHGFLIHEGLLNGRGWQLSFDRHQEMVPTTFHDLRNGQPWEVPQDLEHHHHHH” it was “not soluble”; in that of “MSLVPARPNRPEADREALWKIVHDRCEFGYRRTGAYAPCTFVDEQSGTALYKADFDPYQFLLIPLARITGIEDPALRESAGRNYLYDAWAARFLVTARLNNSLPESDVVLTINPKNARTQDQLHIHISCSSPTTSAALRNVDTSEYVGWKQLPIDLGGRRFQGLAVDTKAFESRNLFRDIYLKVTADGKKMENASIAVANVAQDQFLLLLAEGTEDQPVAAETLQDHDCSITKSEGHHHHHH”, “soluble”.
In the case of “MGSSHHHHHHSSGLVPRGSQSTSLYKKAGLMISAGDFKNGVTFELDGQIFQVIEFQHVKPGKGAAFVRTKLKNIVTGATIEKTFNPTDKMPKAHIERKDMQYLYNDGDLYYFMDTETFEQLPLGKDKIGDALKFVKENEIVKVLSHKGNVFGIEPPNFVELEVTDTEPGFKGDTATGATKPAIVETGASIKVPLFVNKGDIIRIDTRTGEYMERV”, the “soluble on expression in E. coli” value is “soluble”.
For “MIRWFRNFGALFKKPRGAGLMKNEQTHNLQRVVQNDITCPEEQRSTGGKGGGGGSHGGHGGSHGGSHGGHGSHGGSYGGHSGHGRSFSTSSGSSGYRGLSSGSTNTSYSKSTPRTNSGYSTGKTTKTASSSRNYSNTSSTRSTTKPSKSSYSKRSTKSTKSLNYSSSSLGSKSIEKSRRSSRKSGSRQDSVASRRQLRSVSSKPQKKYVATDMPSTVSTGRSRGRSVYRRNNVNADVSQRQSRSMSVSRGRSRNRSQNRERSPSIEKSTRSQHVSRKDAFNSHDVLSPTNRSGSVHRSHSAHHERTFEERHKTPNGVWNEMFPKGTLVMYTDGSYLKRPPTSGIGIFVGPGHELNRSQRIRGPIQDNNYAEFIAVRTALQNALKNENYRDQKVVIRTDCLNVIEALQGTRPTAFVDVKSQVEFLSKQFPKGVHFQHVYAHAGDPGNEMADLFAGQASSKSQNSFGGGQRTRSASTARGRSRERNRLRSKSNDPSFIRSRSHSIHSRK”, the “soluble on expression in E. coli” value is on record as “not soluble”.
Take “RSFTAFLLFLPVGFLYPLAKKKELALQRQEELRRQFKEAVLILSSSLGAGYSVENAFAGSLRELEELYGREGMITKEFSYIAHQLRMNRTVETLLAEFADRSGLEEIKNFSDIFAVSKRSRGELVSVVNHTVHVISDRLQVREEILTMTAEKQFEQKIMNLVPYCIVIYIEFSSPGFFRQMYG”: the “soluble on expression in E. coli” value is “not soluble”.
Take “MAHHHHHHMPARWHNKQKKGSNGHKRPSTGGNGSAARRDIGFIPPGASAVQNSSAHHADTFMYRFPQNFPVPRRLRHAPTSLVEAVNDFHFAMMNDRPRNEFYYELLKRHVTPETGVLEIGAGSGLLSLMAAQLGAKWVVAVEGSAEMAKLARANICANKMEHKVTVLHMLSTELTLRHLPDRPDVMVSEILGTLLLGESALDYIADVRERLLKPTTKIIPQHGTQYAVPIECDTLRDVCAVSGWKGLELSHMTALQDTVSIVFAKQYGFRMSSVPFRRLSEPIALFSVDFASAVRRDIPMNLKLDVKATSSGTAHAMLYYWKAFDGDLVMSTDPADTLNNFPRDMQWGQALQLLDAANGPFPTPVVFTEGEELKFQCHFSSDRVTVHIHLCPTAEAAASPAKTTPTDNDAIKTEKEACEKVNKGKK”: the “soluble on expression in E. coli” value is on record as “soluble”.
Consider “MEKNFKVAALYCFADLKHYRQLQKPLLDLCQAKDIKGTLLLAQEGINGTVAGSCAAIETLVDFITAEPAFQMPEIKYSWASKMPFHRMKVRLKKEIVTMGVDGVNPLKAVGTYVDPKDWNALIQDEETLLIDTRNDYEYAIGSFQGAVDPRIKTFREFPAWVLKHEADLKKKKKIAMFCTGGIRCEKSTAYVRELGYEQVYHLKGGILKYLETIPKEDSLWWGECFVFDERVSVKHGLEECGRELCRACRSPLNTESKLSPHYEEGVSCDACYNTRSEDDRERFRERHRQFQLSKLRAMHSHQELEHHHHHH”, for which the “soluble on expression in E. coli” value is listed as “not soluble”.
For the sequence “MAAKWEKLEGNVGVLTIEVDAKEVNNSIDAAFKKVVKTINVPGFRKGKMPRPLFEQRFGIESLYQDALDIILPKAYGEAIDEAGIFPVAHPEIDIEKFEKNANLIFTAKVTVKPEVKLGEYKGLAVEKVETTVTDEDVENELKSLQERQAELVVKEEGTVENGDTAVIDFEGFVDGEAFEGGKGENYSLAIGSGTFIPGFEEQVIGLKSGESKDVEVSFPEEYHAAELAGKPATFKVTVHEIKTKELPELNDEFAKEADEAVATLDELKAKLRTNLEEGKKHEAEHKVRDEVVELAAANAEIDIPEAMIDTELDRMVREFEQRLSQQGMNLELYYQFTGTDADKLKEQMKEDAQKRVRINLVLEAIIEAENIEVTEEEVTAEVEKMAEMYGMPVDAIKQALGSVDALAEDLKVRKAVDFLVENAA”, the “soluble on expression in E. coli” value was “not soluble”.
Consider “MEQLLERIFDELAFLRANMATKDDVAALKDDIRALESRASHIEQTMATKDDIAAMDKRIGQIEQTMATKDDIASIEQRMATKDDVADIPFIKQAVMETLETINEIPAIKQTLAEALRKLDDVIASQARQELVLQSLAFRSLEQENEIRALKAK”, for which the “soluble on expression in E. coli” value is on record as “not soluble”.
